Test results reported in the nanobody polyreactivity screen of Harvey et al. (2022).

Experiment: yeast display, Sf9 membrane polyspecificity reagent, FACS + sequencing; frameworks hold sequencing errors
Method in brief: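 Using colony PCR, genes from sorted yeast display clones were amplified, then sequenced on MiSeq at 2 × 250 and filtered by CDR length. The clones had been stained with 10% biotinylated, detergent-solubilized Sf9 membrane reagent for 1 hour at 4 °C and sorted by FACS into low and high (top ~1%) gates on anti-HA and streptavidin fluorescence. Polyreactivity labels come from the gate of origin.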

| Sequence | polyreactivity (PSR sort gate) |
| --- | --- |
| QVQLVESGGGLVQAGGSLRLSCAASGSTFPPNAMGWYRQARGKARELVAVISYSDGSTYYADSVNGRFTISRDNAKNTVYLQMNSLKPEDTAVYYCAAYSGYAGVSMYYWGQGTQVTVSS | low polyreactivity |
| QVQLVESGGGLVQAGGSLRLSCAASGSTFPPYAMGWYRPAPGKGRELVAAISYRDTGTYYADSVKGRFTISRDNAKNTVYLQMNSLKPEDTAVYYCAADYLIVYYFLYYYWGQGTPVTVSS | low polyreactivity |
| QVQLVESGGGLVQAGGSLRLSCAASGSTFPPYAMGWYRQAPGKERDLVADITRRGASTYYADSVKGRFTISRDNAKNTVYLQMNSLKPEDTAVYYCAARYYYQYYSGFDYWGQGTQVTVSS | high polyreactivity |
| QVQLVESGGGLVQAGGSLRLSCAASGSTFPRNAMGWYRQAPGKERELVAAISYSGGRTYYADSVKGRFTISRDNAKNTVYLQMNSLKPEDTAVYYCAAQPYSLVRGKSYGYWGQGTQVTVSS | high polyreactivity |
| QVQLVESGGGLVQAGGSLRLSCAASGSTFPRNAMGWYRQAPGKERELVATITSSAGGTYYADSVKGRFTISRDNAKNTVYLQMNSLKPEDTAVYYCNADKNGFWYTYFGRERDYWGQGTQVTVSS | low polyreactivity |
| QVQLVESGGGLVQAGGSLRLSCAASGSTFPSNAMGRYRQAPGKERELVAVISTSGVRTYYADSVKGRFTISRDNAKNTVYLQMNSLKPEDTAVYYCAARTRSYGGNGYRYPFDYWGQGTQVTVSS | high polyreactivity |
| QVQLVESGGGLVQAGGSLRLSCAASGSTFPSYAMGCYRQAPAKERELVAAINSGGGTNYADSVKGRFTISRDNAKNTVYLQMNSLKPEDTAVYYCAKSRYDYTKTEGGYWGQGTQVTVSS | low polyreactivity |
| QVQLVESGGGLVQAGGSLRLSCAASGSTFPSYAMGWYRPAPGKERELVAAINSGGGTNYADSVKGRFTISRDNAKNTVYLQMNSLKPEDTAVYYCAKSRYDYTKTEGGYWGQGTQVTVSS | low polyreactivity |
| QVQLVESGGGLVQAGGSLRLSCAASGSTFPTKAMGWYRQAPGKERELVATITTRRSTYYADSVKGRFTISRDNAKNTVYLQMNSLKPEDTAVYYCNAEYVYLIFSVYLYDYDYWGQGTQVTVSS | low polyreactivity |
| QVQLVESGGGLVQAGGSLRLSCAASGSTFPTNAMGWYRPAPGKERELVATFTTGGSTYYADSVKGRFTISRDNAKNTVYLQMNSLKPVDTAVYYCNAEYVYLIFSVYLYDYDYWGQVTQVTVSS | low polyreactivity |
| QVQLVESGGGLVQAGGSLRLSCAASGSTFPTNAMGWYRQAPGKEREFVADITIRGGGTAYADSVKGRFTISRDNAKNTVYLQMTSLKPEDTAVYYCARSKSTELKRLLYDSWGQGTQVTVST | low polyreactivity |
| QVQLVESGGGLVQAGGSLRLSCAASGSTFPTNAMGWYRQAPGKERELDAGITEGGSSTYYADSVKGRFTISRDYAKNTVYLQMNSLKPEDTAVYYCAADVLWYGPFWVRQDDYWGQGTQLTVSS | high polyreactivity |
| QVQLVESGGGLVQAGGSLRLSCAASGSTFPTNAMGWYRQAPGKERELVAAISQRGDSTSYADSVKGRFTISRDNAKNTVYLQMNSLKPEDTAVYFCAVDAYSYYDSTWFWYDYWGQGTQVTVSS | high polyreactivity |
| QVQLVESGGGLVQAGGSLRLSCAASGSTFPTYAMGWYRQAPGKERELVAAITRGGSTYYADSVKGRFTISRDNAKNTVYLQMHSRKPEDTSVYYCAVYEFLGQIGKRDYWGQGTQVTVSS | low polyreactivity |
| QVQLVESGGGLVQAGGSLRLSCAASGSTFPTYVMGWYRQAPGKERELVASINSDTGTYYADSVKGRFTISRDNAQNTVYLQMNSLKPEDTAVYYCNARQAYYFYPFEYDYWGQGTQVTVSS | low polyreactivity |
| QVQLVESGGGLVQAGGSLRLSCAASGSTFPVYAMGWYRQAPGKERELVASISSGADTNYADSVKGRFTISRDNAKNTVYLQMNSLKPEDTAVYYCAATVPLRTIRPRSYGYWGQGTQVTVSS | low polyreactivity |

| Sequence | polyreactivity (PSR sort gate) |
| --- | --- |
| QVQLVESGGGLVQAGGSLRLSCAASGSTFPWNAMGWYRQAPGKERELVAAINYGNGSTYYADSVKGRFTISRDNAKNTVYLQMNSLKPEDTAVYYCNADYTGTRTDSVTPEYEYWGQGTQVTVSS | low polyreactivity |
| QVQLVESGGGLVQAGGSLRLSCAASGSTFPYNAMGWYRQAPGKERELVAAITGRGGSTYYADSVKGRFTISRDNAKNTVYLQMNSLKPEDTAVYYCGADFWYSYYYWGQGTQVTVSS | high polyreactivity |
| QVQLVESGGGLVQAGGSLRLSCAASGSTFPYYAMGWYRQAPGKERELVAAISRGDSTNYADSVKGRFTISRDNAKNTFYLQMNSLKTEDTAVYYCAARLQYRRTSVKYYYWGQGTQVTVSS | high polyreactivity |
| QVQLVESGGGLVQAGGSLRLSCAASGSTFPYYAMGWYRQAPGKERELVAAISWRGTRTYYADSVKGRFTISRDNAKNTVYLQMNSLKPEDTAVYYCNAYHTPEYQEGGYYWGQGTQVTVSS | high polyreactivity |
| QVQLVESGGGLVQAGGSLRLSCAASGSTFPYYAMGWYRQAPGKERELVASIRKRGGGTYYADSVKGRFTISRDNAKNTVYLQMNSLKPEDTAVYYCAVRVYQFRYTGYDYWGQGTQVTVSS | high polyreactivity |
| QVQLVESGGGLVQAGGSLRLSCAASGSTFPYYDMGWYRQAPGKERELVAAISWSGDSTYYADSVKGRFTISRDNAKNTVYLQMNRLKPEDTAVYYCAAYSDYWSYLSTDDYWGQGTQVTVSS | low polyreactivity |
| QVQLVESGGGLVQAGGSLRLSCAASGSTFPYYVMGRYRQAPGKERELVAAITRSTGTTYYADSVKGRFTISRDNAKNTVYLQMNSLKPEDTAVYYCAARSSSSPRWYGGDYWGQGTQVTVSS | low polyreactivity |
| QVQLVESGGGLVQAGGSLRLSCAASGSTFQAKAMGWYRQAPGKERELVAAISWRGSSTYYADSVKGRFTISRDNAKNTVYLQMNSLKPEDPAVYYCAAASSGSYYRYEYWGQGTQVTVSS | high polyreactivity |
| QVQLVESGGGLVQAGGSLRLSCAASGSTFQANAMGWYRQAPGKERELVAAISSRGGITYYADSVKGRFTISRDNAKNTVYLQMNSLKPEYTAVYYSNALPRCTYRQGLGVRLYYWGQGTQVTVSS | high polyreactivity |
| QVQLVESGGGLVQAGGSLRLSCAASGSTFQFYAMGWYRQAPGKEREFVAAITTRSGSTYYADSVKGRFTISRDTAKNTVYLQMNSQKPEDTAVYYCAAYIYGHSSDSVRYEYWGQGTQVTVSS | low polyreactivity |
| QVQLVESGGGLVQAGGSLRLSCAASGSTFQGKAMGWYRQAPGKERELVATINNDGSTYYADSVKGRFTISRDNAKNTVYLQMNSLKPEDTAVYYCAADVHRVVLEYDYWGQGTQVTVSS | low polyreactivity |
| QVQLVESGGGLVQAGGSLRLSCAASGSTFQGNAMGWYRQAPGKERELVAAISTSGGRTRYADSVKGRFTISRDKAKNTVYLQMNSLKPEDTAVYHCATTYWYGKRPKMYYWGQGTQVTVSS | high polyreactivity |
| QVQLVESGGGLVQAGGSLRLSCAASGSTFQHYAMGWYRQAPGKERELVAAITNTGGSTYYADSVKGRFTISRDNAKNTVDLQMNSLKPEDTAVYYCATVGRRYGYPGDYWGQGTQVTVSS | low polyreactivity |
| QVQLVESGGGLVQAGGSLRLSCAASGSTFQINAMGWYRQAPGKEREFVAAITVSSGSTYYADSVKGRFTISRDNAKNTVYLQMNSLKPEDTAVYYCAADYWGQGTQVTVSS | low polyreactivity |
| QVQLVESGGGLVQAGGSLRLSCAASGSTFQLNAMGWYRQAPGKERELVAAISVRGGSTYYADSVKGRFTISRDTAKNTVYLQMHSLKPEETAVYYCATDSLYFLFAGDAVVRRPSYYWGQGTQVTVSS | high polyreactivity |
